How the values were obtained:
[1] = system: HeLa Kyoto; assay: thermal stability score vs G1/S (z-score of summed log2 fold changes over temperatures); higher = more thermally stable than in G1/S
[2] = system: HeLa Kyoto; assay: solubility change mitosis vs G1/S (difference of NP-40 vs SDS log2 ratios) (log2 ratio difference); higher = more soluble in mitosis
[3] = system: HeLa Kyoto; assay: solubility in G1/S (NP-40 vs SDS abundance) (log2 ratio); higher = more soluble; conditions: cell cycle stage: G1/S
[4] = system: HeLa Kyoto; assay: melting temperature (median over replicates), in situ; higher = more thermally stable
[5] = cell cycle stage: early G1 (4.5 h after nocodazole release)
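For melting temperature (median over replicates), in situ in this document: HeLa Kyoto cells synchronized by double thymidine or nocodazole block, proteins quantified by TMT10plex mass spectrometry, three independent biological replicates.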
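For solubility change mitosis vs G1/S (difference of NP-40 vs SDS log2 ratios) in this document: synchronized HeLa Kyoto cells (double thymidine block for G1/S, nocodazole release for mitosis), protein amounts in NP-40 versus SDS lysates quantified by mass spectrometry, three biological replicates.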
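For solubility in G1/S (NP-40 vs SDS abundance) in this document: HeLa Kyoto cells arrested at G1/S by double thymidine block, proteins quantified by TMT10plex mass spectrometry in mild NP-40 versus SDS extracts, three biological replicates.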
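For thermal stability score vs G1/S (z-score of summed log2 fold changes over temperatures) in this document: synchronized HeLa Kyoto cells, proteins quantified by TMT10plex mass spectrometry, three biological replicates, mitosis taken 0.5 h after nocodazole release, G1/S directly after double thymidine block.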

| Substance | thermal stability score [1, 5] | thermal stability score ([1]; cell cycle stage: mitosis) | solubility change mitosis (log2) [2] | solubility in G1/S (log2) [3] | melting temperature ([4]; cell cycle stage: G1/S) [°C] | melting temperature ([4]; cell cycle stage: mitosis) [°C] |
| --- | --- | --- | --- | --- | --- | --- |
| MSHGHSHGGGGCRCAAEREEPPEQRGLAYGLYLRIDLERLQCLNESREGSGRGVFKPWEERTDRSKFVESDADEELLFNIPFTGNVKLKGIIIMGEDDDSHPSEMRLYKNIPQMSFDDTEREPDQTFSLNRDLTGELEYATKISRFSNVYHLSIHISKNFGADTTKVFYIGLRGEWTELRRHEVTICNYEASANPADHRVHQVTPQTHFIS [PITHD1] | -1.84 | -2.51 | -0.108 | 0.0556 | 56.2 | 59.5 |
| MDTPPLSDSESESDESLVTDRELQDAFSRGLLKPGLNVVLEGPKKAVNDVNGLKQCLAEFKRDLEWVERLDVTLGPVPEIGGSEAPAPQNKDQKAVDPEDDFQREMSFYRQAQAAVLAVLPRLHQLKVPTKRPTDYFAEMAKSDLQMQKIRQKLQTKQAAMERSEKAKQLRALRKYGKKVQTEVLQKRQQEKAHMMNAIKKYQKGFSDKLDFLEGDQKPLAQRKKAGAKGQQMRKGPSAKRRYKNQKFGFGGKKKGSKWNTRESYDDVSSFRAKTAHGRGLKRPGKKGSNKRPGKRTREKMKNRTH [EBNA1BP2] | 0.765 | 0.121 | 1.38 | -1.71 | 54 | 53.4 |
| MADGEEPEKKRRRIEELLAEKMAVDGGCGDTGDWEGRWNHVKKFLERSGPFTHPDFEPSTESLQFLLDTCKVLVIGAGGLGCELLKNLALSGFRQIHVIDMDTIDVSNLNRQFLFRPKDIGRPKAEVAAEFLNDRVPNCNVVPHFNKIQDFNDTFYRQFHIIVCGLDSIIARRWINGMLISLLNYEDGVLDPSSIVPLIDGGTEGFKGNARVILPGMTACIECTLELYPPQVNFPMCTIASMPRLPEHCIEYVRMLQWPKEQPFGEGVPLDGDDPEHIQWIFQKSLERASQYNIRGVTYRLTQGVVKRIIPAVASTNAVIAAVCATEVFKIATSAYIPLNNYLVFNDVDGLYTYTFEAERKENCPACSQLPQNIQFSPSAKLQEVLDYLTNSASLQMKSPAITATLEGKNRTLYLQSVTSIEERTRPNLSKTLKELGLVDGQELAVADVTTPQTVLFKLHFTS [UBA3] | 1.23 | 1.76 | -0.178 | 0.115 | 51.8 | 51.5 |
| MDPGDDWLVESLRLYQDFYAFDLSGATRVLEWIDDKGVFVAGYESLKKNEILHLKLPLRLSVKENKGLFPERDFKVRHGGFSDRSIFDLKHVPHTRLLVTSGLPGCYLQVWQVAEDSDVIKAVSTIAVHEKEESLWPRVAVFSTLAPGVLHGARLRSLQVVDLESRKTTYTSDVSDSEELSSLQVLDADTFAFCCASGRLGLVDTRQKWAPLENRSPGPGSGGERWCAEVGSWGQGPGPSIASLGSDGRLCLLDPRDLCHPVSSVQCPVSVPSPDPELLRVTWAPGLKNCLAISGFDGTVQVYDATSWDGTRSQDGTRSQVEPLFTHRGHIFLDGNGMDPAPLVTTHTWHPCRPRTLLSATNDASLHVWDWVDLCAPR [WDR73] | 0.072 | 0.551 | -0.0847 | -0.0335 | 54.8 | 54 |
| MAERGGDGGESERFNPGELRMAQQQALRFRGPAPPPNAVMRGPPPLMRPPPPFGMMRGPPPPPRPPFGRPPFDPNMPPMPPPGGIPPPMGPPHLQRPPFMPPPMSSMPPPPGMMFPPGMPPVTAPGTPALPPTEEIWVENKTPDGKVYYYNARTRESAWTKPDGVKVIQQSELTPMLAAQAQVQAQAQAQAQAQAQAQAQAQAQAQAQAQAQAQAQAQAQAQAQAQAQAQAQAQAQAQAQAQVQAQVQAQVQAQAVGASTPTTSSPAPAVSTSTSSSTPSSTTSTTTTATSVAQTVSTPTTQDQTPSSAVSVATPTVSVSTPAPTATPVQTVPQPHPQTLPPAVPHSVPQPTTAIPAFPPVMVPPFRVPLPGMPIPLPGVAMMQIVSCPYVKTVATTKTGVLPGMAPPIVPMIHPQVAIAASPATLAGATAVSEWTEYKTADGKTYYYNNRTLESTWEKPQELKEKEKLEEKIKEPIKEPSEEPLPMETEEEDPKEEPIKEIKEEPKEEEMTEEEKAAQKAKPVATAPIPGTPWCVVWTGDERVFFYNPTTRLSMWDRPDDLIGRADVDKIIQEPPHKKGMEELKKLRHPTPTMLSIQKWQFSMSAIKEEQELMEEINEDEPVKAKKRKRDDNKDIDSEKEAAMEAEIKAARERAIVPLEARMKQFKDMLLERGVSAFSTWEKELHKIVFDPRYLLLNPKERKQVFDQYVKTRAEEERREKKNKIMQAKEDFKKMMEEAKFNPRATFSEFAAKHAKDSRFKAIEKMKDREALFNEFVAAARKKEKEDSKTRGEKIKSDFFELLSNHHLDSQSRWSKVKDKVESDPRYKAVDSSSMREDLFKQYIEKIAKNLDSEKEKELERQARIEASLREREREVQKARSEQTKEIDREREQHKREEAIQNFKALLSDMVRSSDVSWSDTRRTLRKDHRWESGSLLEREEKEKLFNEHIEALTKKKREHFRQLLDETSAITLTSTWKEVKKIIKEDPRCIKFSSSDRKKQREFEEYIRDKYITAKADFRTLLKETKFITYRSKKLIQESDQHLKDVEKILQNDKRYLVLDCVPEERRKLIVAYVDDLDRRGPPPPPTASEPTRRSTK [TCERG1] | 2.7 | 5.16 | -0.0317 | 0.0535 | 48.5 | 48.8 |
| MFSD10 | -2.75 | -4.59 | -0.219 | -0.0104 | 57.2 | 57.1 |
| MALRACGLIIFRRCLIPKVDNNAIEFLLLQASDGIHHWTPPKGHVEPGEDDLETALRETQEEAGIEAGQLTIIEGFKRELNYVARNKPKTVIYWLAEVKDYDVEIRLSHEHQAYRWLGLEEACQLAQFKEMKAALQEGHQFLCSIEA [NUDT2] | -0.841 | -1.24 | 0.0921 | -0.102 | 51.7 | 51.9 |
| MSHVAVENALGLDQQFAGLDLNSSDNQSGGSTASKGRYIPPHLRNREATKGFYDKDSSGWSSSKDKDAYSSFGSRSDSRGKSSFFSDRGSGSRGRFDDRGRSDYDGIGSRGDRSGFGKFERGGNSRWCDKSDEDDWSKPLPPSERLEQELFSGGNTGINFEKYDDIPVEATGNNCPPHIESFSDVEMGEIIMGNIELTRYTRPTPVQKHAIPIIKEKRDLMACAQTGSGKTAAFLLPILSQIYSDGPGEALRAMKENGRYGRRKQYPISLVLAPTRELAVQIYEEARKFSYRSRVRPCVVYGGADIGQQIRDLERGCHLLVATPGRLVDMMERGKIGLDFCKYLVLDEADRMLDMGFEPQIRRIVEQDTMPPKGVRHTMMFSATFPKEIQMLARDFLDEYIFLAVGRVGSTSENITQKVVWVEESDKRSFLLDLLNATGKDSLTLVFVETKKGADSLEDFLYHEGYACTSIHGDRSQRDREEALHQFRSGKSPILVATAVAARGLDISNVKHVINFDLPSDIEEYVHRIGRTGRVGNLGLATSFFNERNINITKDLLDLLVEAKQEVPSWLENMAYEHHYKGSSRGRSKSSRFSGGFGARDYRQSSGASSSSFSSSRASSSRSGGGGHGSSRGFGGGGYGGFYNSDGYGGNYNSQGVDWWGN [DDX3X] | -0.877 | 2.82 | 0.197 | -0.457 | 47.4 | 47.4 |
| MAMVSEFLKQAWFIENEEQEYVQTVKSSKGGPGSAVSPYPTFNPSSDVAALHKAIMVKGVDEATIIDILTKRNNAQRQQIKAAYLQETGKPLDETLKKALTGHLEEVVLALLKTPAQFDADELRAAMKGLGTDEDTLIEILASRTNKEIRDINRVYREELKRDLAKDITSDTSGDFRNALLSLAKGDRSEDFGVNEDLADSDARALYEAGERRKGTDVNVFNTILTTRSYPQLRRVFQKYTKYSKHDMNKVLDLELKGDIEKCLTAIVKCATSKPAFFAEKLHQAMKGVGTRHKALIRIMVSRSEIDMNDIKAFYQKMYGISLCQAILDETKGDYEKILVALCGGN [ANXA1] | 3.41 | 3.05 | 0.0587 | 0.618 | 49.1 | 49.6 |
| MRRSEVLAEESIVCLQKALNHLREIWELIGIPEDQRLQRTEVVKKHIKELLDMMIAEEESLKERLIKSISVCQKELNTLCSELHVEPFQEEGETTILQLEKDLRTQVELMRKQKKERKQELKLLQEQDQELCEILCMPHYDIDSASVPSLEELNQFRQHVTTLRETKASRREEFVSIKRQIILCMEALDHTPDTSFERDVVCEDEDAFCLSLENIATLQKLLRQLEMQKSQNEAVCEGLRTQIRELWDRLQIPEEEREAVATIMSGSKAKVRKALQLEVDRLEELKMQNMKKVIEAIRVELVQYWDQCFYSQEQRQAFAPFCAEDYTESLLQLHDAEIVRLKNYYEVHKELFEGVQKWEETWRLFLEFERKASDPNRFTNRGGNLLKEEKQRAKLQKMLPKLEEELKARIELWEQEHSKAFMVNGQKFMEYVAEQWEMHRLEKERAKQERQLKNKKQTETEMLYGSAPRTPSKRRGLAPNTPGKARKLNTTTMSNATANSSIRPIFGGTVYHSPVSRLPPSGSKPVAASTCSGKKTPRTGRHGANKENLELNGSILSGGYPGSAPLQRNFSINSVASTYSEFAKDPSLSDSSTVGLQRELSKASKSDATSGILNSTNIQS [PRC1] | 5.68 | 7.18 | 0.431 | 0.0588 | 47.1 | 49 |
| MAAVSVYAPPVGGFSFDNCRRNAVLEADFAKRGYKLPKVRKTGTTIAGVVYKDGIVLGADTRATEGMVVADKNCSKIHFISPNIYCCGAGTAADTDMTTQLISSNLELHSLSTGRLPRVVTANRMLKQMLFRYQGYIGAALVLGGVDVTGPHLYSIYPHGSTDKLPYVTMGSGSLAAMAVFEDKFRPDMEEEEAKNLVSEAIAAGIFNDLGSGSNIDLCVISKNKLDFLRPYTVPNKKGTRLGRYRCEKGTTAVLTEKITPLEIEVLEETVQTMDTS [PSMB7] | -1.21 | -2.39 | -0.192 | 0.376 | 60.7 | 64.5 |
| MAPDPVAAETAAQGPTPRYFTWDEVAQRSGCEERWLVIDRKVYNISEFTRRHPGGSRVISHYAGQDATDPFVAFHINKGLVKKYMNSLLIGELSPEQPSFEPTKNKELTDEFRELRATVERMGLMKANHVFFLLYLLHILLLDGAAWLTLWVFGTSFLPFLLCAVLLSAVQAQAGWLQHDFGHLSVFSTSKWNHLLHHFVIGHLKGAPASWWNHMHFQHHAKPNCFRKDPDINMHPFFFALGKILSVELGKQKKKYMPYNHQHKYFFLIGPPALLPLYFQWYIFYFVIQRKKWVDLAWMITFYVRFFLTYVPLLGLKAFLGLFFIVRFLESNWFVWVTQMNHIPMHIDHDRNMDWVSTQLQATCNVHKSAFNDWFSGHLNFQIEHHLFPTMPRHNYHKVAPLVQSLCAKHGIEYQSKPLLSAFADIIHSLKESGQLWLDAYLHQ [FADS1] | -0.752 | -0.737 | -0.092 | -0.124 | 51.9 | 51.3 |
| MAALGEPVRLERDICRAIELLEKLQRSGEVPPQKLQALQRVLQSEFCNAVREVYEHVYETVDISSSPEVRANATAKATVAAFAASEGHSHPRVVELPKTEEGLGFNIMGGKEQNSPIYISRIIPGGIADRHGGLKRGDQLLSVNGVSVEGEHHEKAVELLKAAQGKVKLVVRYTPKVLEEMESRFEKMRSAKRRQQT [LIN7C] | -0.659 | -0.713 | 0.202 | 0.382 | 50.1 | 51.5 |
| MALPHDSNETSYLLPPNNEDWGRQTIPDFVYGQKDLMAEGIQWPRNAPGIPDALPQSPFDAALCSAWKQRVELGLFRYRLRELQTQILPGAVGFVAQLNVERGVQRRPPQTIKSVRQAFDPVQFNFNKIRPGEVLFRLHREPDLPGTLLQEDILVVINVSPLEWGHVLLVPEPARQLPQRLLPGALRAGIEAVLLSLHPGFRVGFNSLGGLASVNHLHLHGYYLAHRLPVEQAPSEPLDPGGHLHLLQDLPAPGFLFYTRGPGPDLESLISRVCRATDYLTDHEIAHNLFVTRGAPPGKTSPSSALTGVRVILWARKSSFGIKDGEAFNVALCELAGHLPVKTSQDFSSLTEAAAVALIQDCRLPPSQAEDVQAALVALMSQEEQ [GDPGP1] | -0.152 | -0.661 | -0.107 | 0.217 | 52.5 | 51 |

— the supplement of paper PMC5998384
